Source: patent US20260015417A1 (MEDIMABBIO, published 2026)

Molecular target: T1, recombinant human TIGIT protein (Acrobiosystems) (human, UniProt Q495A1 22-141)
T1 construct: Bought recombinant protein; NP_776160.2; UniProt Q495A1-1
T1 sequence: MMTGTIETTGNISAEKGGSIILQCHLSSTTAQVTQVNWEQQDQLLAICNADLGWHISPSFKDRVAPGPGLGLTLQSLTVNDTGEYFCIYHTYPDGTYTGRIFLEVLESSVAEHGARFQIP
Assay: ELISA, plate coated with recombinant human TIGIT at 1 ug/ml, serial 1:3 dilutions from 61.097 nM, detection with anti-mouse/human IgG-HRP, OD 450 nm
Procedure: An ELISA plate was coated with recombinant human TIGIT protein (Acrobiosystems, China) at a concentration of 1 μg/ml dissolved in PBS (Phosphate-Buffered Saline) and incubated overnight at 4° C. The plate was blocked with blocking buffer (3% (v/v) skim milk in PBS) for 1 hour, and serially diluted anti-TIGIT monoclonal antibody (7A6) and the fusion protein ([7A6]-[TL-2]-[IL-15]; denoted as ‘7A615TL-2’) (starting concentration: 61.097 nM; serial 1:3 dilutions) were added to the coated plate. After incubation, anti-mouse/human IgG-HRP antibody (Abcam: 1:10000 dilution) was added to each well. The plate was developed with TMB solution and stopped with 1N HCl. The OD value was read at 450 nm using the GloMax® Explorer Fully Loaded.

B1: anti-TIGIT monoclonal antibody 7A6 (7A6_VH3/Vk5) (antibody, human IgG1, kappa, V domains shown)
VH: QVQLQESGPGLVKPSQTLSLTCTVTGYSITSDYAWNWIRQPPGKGLEWMGYISYSGSARYNPSLKSRVTISRDTSKNQFSLKLSSVTAEDTATYYCARKGYPAYFAYWGQGTLVTVSS
VL: DIQMTQSPSSLSASVGDRVSITCKASQDVSTAVAWYQQKPGQAPRLLIYSASYRYTGVPDRFSGSGSGTDFTLTISSLQPEDFATYYCQHHYSTPYTFGQGTKLEIKR
notes: also called parent antibody; TIGIT mAb
EC50 (read off the curve): ~2 nM
